The assay has as its target DSB nucleosomes (position of the break not stated; EMSAs of Figures 5A and 6A) (human) (UniProt P0C0S8).

“hMidm1m2–AID (Δ746–751/S813A/E829A/R847A/Q849A/L852A/K853A/N854A/D856A) (from UniProt Q9Y5B9 644-988) (domain or fragment)”: the hexasome formation in EMSA with DSB nucleosomes, against wild-type hMid–AID amounted to 2 fold.

These data come from PMC4803053.
